Laboratory results reported in patent publication US20240190962A1.

Target: human IL-2 receptor (IL-2Rα, IL-2Rβ, IL-2Rγ) (human) (UniProt P01589)
Assay: cell-based or functional assay

human IL-2 receptor (IL-2Rα, IL-2Rβ, IL-2Rγ) (human), sequence (P01589 22-272, chain 1 of 3): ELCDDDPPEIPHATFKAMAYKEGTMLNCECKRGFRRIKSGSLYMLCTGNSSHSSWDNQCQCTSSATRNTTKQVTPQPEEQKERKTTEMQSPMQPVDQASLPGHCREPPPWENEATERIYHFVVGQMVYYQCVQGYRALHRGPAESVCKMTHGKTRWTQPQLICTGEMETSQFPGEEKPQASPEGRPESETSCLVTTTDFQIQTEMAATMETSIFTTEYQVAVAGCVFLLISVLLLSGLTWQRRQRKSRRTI
human IL-2 receptor (IL-2Rα, IL-2Rβ, IL-2Rγ) (human), sequence (P14784 27-551, chain 2 of 3, further chain): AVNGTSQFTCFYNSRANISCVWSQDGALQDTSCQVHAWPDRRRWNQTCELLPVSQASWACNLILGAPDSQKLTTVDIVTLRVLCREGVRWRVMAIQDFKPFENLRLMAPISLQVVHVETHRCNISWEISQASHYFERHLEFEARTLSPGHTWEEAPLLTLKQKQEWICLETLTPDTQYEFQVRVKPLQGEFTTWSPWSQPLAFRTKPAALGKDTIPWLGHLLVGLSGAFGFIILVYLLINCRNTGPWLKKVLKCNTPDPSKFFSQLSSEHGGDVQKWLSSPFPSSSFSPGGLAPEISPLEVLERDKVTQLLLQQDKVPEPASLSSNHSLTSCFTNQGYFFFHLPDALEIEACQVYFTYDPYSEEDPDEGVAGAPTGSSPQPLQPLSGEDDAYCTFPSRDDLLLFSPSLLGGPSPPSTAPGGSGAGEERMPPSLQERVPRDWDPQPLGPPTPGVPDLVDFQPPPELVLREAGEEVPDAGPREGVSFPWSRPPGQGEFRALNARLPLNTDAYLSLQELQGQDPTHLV
human IL-2 receptor (IL-2Rα, IL-2Rβ, IL-2Rγ) (human), sequence (P31785 23-369, chain 3 of 3, further chain): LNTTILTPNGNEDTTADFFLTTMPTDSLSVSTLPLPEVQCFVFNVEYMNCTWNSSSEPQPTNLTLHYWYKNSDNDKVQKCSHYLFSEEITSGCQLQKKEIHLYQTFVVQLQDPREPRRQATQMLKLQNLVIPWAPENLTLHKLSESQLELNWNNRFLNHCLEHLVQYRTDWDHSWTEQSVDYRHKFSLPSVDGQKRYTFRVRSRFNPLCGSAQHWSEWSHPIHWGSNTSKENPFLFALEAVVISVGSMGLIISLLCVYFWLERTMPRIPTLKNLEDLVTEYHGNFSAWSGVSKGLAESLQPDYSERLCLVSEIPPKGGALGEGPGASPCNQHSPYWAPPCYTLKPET

B1: Fab-Fc-IL-2 mutant-CD3 Ab (protein, part only; not given: constant regions and IL-2 junction, not shown: a dimerising Fc or GST)
light: EIVMTQSPGTLSLSPGESATLSCSASLSVSFMHWFQQKPGHAPRLLIYRTSNLASGVPDRFSGSGSGTDFTLTISRLEPEDFAVYYCQQRSSDPPTFGQGTRLEIKRTVAAPSVFIFPPSDEQLKSGTASVVCLLNNFYPREAKVQWKVDNALQSGNSQESVTEQDSKDSTYSLSSTLTLSKADYEKHKVYACEVTHQGLSSPVTKSFNRGEC
heavy, part 1: EVQLVESGGGLVQPGRSLRLSCTASGFTFSYFWMNWVRQAPGKGLEWVGEIRLRSDNYATHYAESVKGRFTISRDDSKSIAYLQMNSLKTEDTALYYCTRDWEFTYWGQGTTVTVSSAS
heavy, part 2: EVQLVESGGGLVQPGRSLRLSCTASGFTFSYFWMNWVRQAPGKGLEWVGEIRLRSDNYATHYAESVKGRFTISRDDSKSIAYLQMNSLKTEDTALYYCTRDWEFTYWGQGTTVTVSSASAPTSSSTKKTQLQLEHLLLDLQMILNGINNYKNPKLTDMLTFEFYMPKKATELKHLQCLERELKPLEEVLNLAQSKNFHLRPRDLISNINVIVLELKGSETTFMCEYADETATIVEFLNRWITFCQSIISTLT
Percent T-cell proliferation (PBMC proliferation assay): 52%
